Experiment [1] deals with T1, soluble human FcRn (shFcRn) (human, UniProt P55899 24-297; P61769 21-119).
T1 construct: For crystallography it was expressed in CHOK1SV cells and deglycosylated with PNGaseF; biotinylated for phage selection; also called hFcRn/β2m; FcRn-biotin
As to the kind of experiment: SPR (Biacore), immobilized shFcRn, pH 6. Background: Surface plasmon resonance follows binding to a sensor surface in real time, without labels.

Experiment [2] deals with T1, soluble human FcRn (shFcRn). Description: SPR (Biacore), pH 6.0.
Protocol: (§1) SPR analyses: SPR analyses were conducted using a Biacore 3000 or T100 instrument. Research-grade CMS sensor chips and all coupling reagents for immobilization were purchased from Biacore. All proteins were cross-linked to the dextran surface of a CM5 sensor chip by standard amine coupling chemistry as recommended by Biacore. […] Binding experiments were performed at pH 6.0 or 7.4 using 50 mM phosphate, 100 mM sodium chloride and 0.01% surfactant P20. […] Bound albumin protein was then allowed to dissociate from the chip for 5 minutes with running buffer. Any remaining albumin was removed from the chip with a 60 second injection (2 cycles) of pH 8.0 Tris-HCl regeneration buffer (1 M Tris pH 8.0) at 25 μL/min flow rate. The binding responses recorded near the end of the association phase were plotted as a function of concentration. Equilibrium dissociation constants (KD), were derived from sensorgrams using the 1:1 binding model of BlAevaluation software 4.1.
The target is the same in experiment [3]. As to the kind of experiment: SPR (Biacore), immobilized shFcRn, pH 6, steady-state fit.
For experiment [4] the target is unchanged. As to the kind of experiment: SPR (Biacore), immobilized shFcRn, pH 7.4.
Experiment [5] has the same target. As to the kind of experiment: SPR (Biacore), Kd pH 7.4 divided by Kd pH 6.0.
For experiment [6] the target is unchanged. Description: SPR (Biacore), immobilized shFcRn, pH 6, 2 site fit.
Experiment [7] has the same target. As to the kind of experiment: SPR (Biacore), immobilized shFcRn, pH 6, steady-state fit. The source holds these as a separate data set.
Experiment [8] has the same target. Description: SPR (Biacore), pH 7.4.
Protocol: as §1
Experiment [9] shares this target. Description: method not stated in the sentence (Example 5, description of peptides); approximate KD in the Example 5 text, pH and method not stated.
Experiment [10] shares this target. Description: SPR (Biacore), immobilized shFcRn, pH 6, steady-state fit; pH 6; first of two values in the cell, marked *; immobilized shFcRn.

Bridge positions count the residues as written; N and C are the ends.

T1 sequence (P55899 24-297 limits assumed, chain 1 of 2): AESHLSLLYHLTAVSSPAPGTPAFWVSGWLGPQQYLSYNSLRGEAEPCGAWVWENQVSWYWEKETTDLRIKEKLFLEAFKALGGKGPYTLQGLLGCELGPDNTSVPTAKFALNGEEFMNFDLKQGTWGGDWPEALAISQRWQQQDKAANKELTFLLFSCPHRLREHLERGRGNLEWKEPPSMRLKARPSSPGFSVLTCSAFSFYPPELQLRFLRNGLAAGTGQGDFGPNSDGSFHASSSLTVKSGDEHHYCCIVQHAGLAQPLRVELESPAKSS
T1 sequence (P61769 21-119 limits assumed, chain 2 of 2): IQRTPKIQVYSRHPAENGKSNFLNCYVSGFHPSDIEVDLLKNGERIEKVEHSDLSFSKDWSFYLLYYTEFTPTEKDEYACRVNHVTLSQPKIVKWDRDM

In experiment [1], YMTXKWDDGFSXEYV (N-terminal acetyl; C-terminal amide; Pen (penicillamine) at positions 4 and 12) [SYN1169] gave a Kd of 870 nM. In [2], Ac-RYFCTKWKHGWCEEVGT-NH2 (disulfide 4-12 (inferred)) [SYN1753] registered an equilibrium dissociation constant (Kd) of 500 nM. In turn, Ac-RYACTKWKHGWCEEV-NH2 (disulfide 4-12 (inferred)) [SYN1544] had an equilibrium dissociation constant (Kd) in experiment [3] of 7700 nM. As to Ac-RYFCTKWKHGWCEAV-NH2 (disulfide 4-12 (inferred)) [SYN1553], the Kd in experiment [3] came to 9500 nM. The same measure, in the same setting: the result for Ac-RYFCTAWKHGWCEEV-NH2 (disulfide 4-12 (inferred)) [SYN1546] reads 14200 nM; that for Ac-RYFCAKWKHGWCEEV-NH2 (disulfide 4-12 (inferred)) [SYN1545], 9300 nM. Same read-out and setting: with Ac-RYFCTKWKHAWCEEV-NH2 (disulfide 4-12 (inferred)) [SYN1550] the figure was 39400 nM; with Ac-RYFCTKWAHGWCEEV-NH2 (disulfide 4-12 (inferred)) [SYN1548], 9300 nM.

For Ac-RYFCTKWKAGWCEEV-NH2 (disulfide 4-12 (inferred)) [SYN1549], binding in experiment [3] was put at a Kd of 27400 nM.

B1: SYN3258 (peptide)
peptide: Ac-RYFCTKWKHGWCEEVGTGGGRYFCTKWKHGWCEEVGT-NH2
modifications: disulfide 4-12, 24-32 (inferred)
notes: 37-mer, two SYN1753 units joined by GGG; also called Ac-[SYN1753]-GGG-[SYN1753]-CONH2
Molecule B1 showed a Kd in experiment [2] of 3.6 nM.

For Ac-YMACKWDDGFSCEYV-NH2 (disulfide 4-12 (inferred)) [SYN1146], the dissociation constant (Kd) in experiment [4] came to 8600 nM; in [6], 250 nM. Besides, the “Kd Ratio 7.4/6.0” value in experiment [5] turned out to be 34.4.

As to Ac-YMTCAWDDGFSCEYV-NH2 (disulfide 4-12 (inferred)) [SYN1147], the Kd in experiment [4] was found to be 27000 nM; in experiment [6] it was 470 nM; in experiment [7], 480 nM. In addition, in [5], the “Kd Ratio 7.4/6.0” value is 56.

For the molecule Ac-YMTCKADDGFSCEYV-NH2 (disulfide 4-12 (inferred)) [SYN1148], the binding result in experiment [1] is listed as “no binding”. Still for that read-out and setting: the result for Ac-YMTCKWDDGASCEYV-NH2 (disulfide 4-12 (inferred)) [SYN1152] reads “no binding”. As for Ac-YMTCKWDAGFSCEYV-NH2 (disulfide 4-12 (inferred)) [SYN1150], the dissociation constant (Kd) stood at 400 nM in experiment [4] and 180 nM in [6]. In addition, the “Kd Ratio 7.4/6.0” value in experiment [5] worked out at 2.2. On to Ac-AGRYFCTKWKHGWCEEVGTGGG-NH2 (disulfide 6-14 (inferred)) [SYN1707], for which binding in [3] was put at a Kd of 490 nM.

Molecule YMTXKWDDGFSCEYV (N-terminal acetyl; C-terminal amide; Pen (penicillamine) at position 4) [SYN1167] showed a Kd in experiment [1] of 2030 nM.

With Ac-AGYMTCKWDDGFSCEYVGTGGGK-NH2 (disulfide 6-14 (inferred)) [SYN515], the Kd is 18000 nM in experiment [4] and 230 nM in experiment [6]. Further, in [5], the “Kd Ratio 7.4/6.0” value was found to be 78. In experiment [1], YMTCKWDDGFSXEYV (N-terminal acetyl; C-terminal amide; Pen (penicillamine) at position 12) [SYN1168] gave a dissociation constant (Kd) of 1940 nM.

B2: SYN1383 (peptide)
peptide: Ac-VMHCFWDEEFRCEYV-NH2
modifications: disulfide 4-12 (inferred)
notes: Truncated and SAR-optimized analog of SYN514
For B2, the Kd in experiment [2] amounted to 32 nM; in [8], 1100 nM; in experiment [4] it was 1100 nM; in experiment [7] it was 32 nM. In addition, in [5], the “Kd Ratio 7.4/6.0” value is 34.

B3: SYN1327 (peptide)
peptide: RFXTGHFGXLYPC
modifications: N-terminal acetyl; C-terminal amide; Pen (L-penicillamine) at 3; Sar (sarcosine) at 9; NMeLeu (L-N-methylleucine) at 10
In the case of B3, the Kd was 31 nM in experiment [2], 170 nM in experiment [8] and about 25 nM in [9]. Molecule Ac-YMTCKWDDGFSCE-NH2 (disulfide 4-12 (inferred)) [SYN1165] registered an equilibrium dissociation constant (Kd) in [1] of 40300 nM. Consider Ac-CKWDDGFSCEYV-NH2 (disulfide 1-9 (inferred)) [SYN1163], for which the binding result in experiment [1] is reported as “no binding”. In the case of Ac-AGRYFCTKWKHGWCEEVGT-NH2 (disulfide 6-14 (inferred)) [SYN1710], in experiment [3], the equilibrium dissociation constant (Kd) was 590 nM. The same measure, in the same setting: the result for Ac-AGRYFCTKWKHGWCEEV-NH2 (disulfide 6-14 (inferred)) [SYN1712] reads 4620 nM.

On to Ac-AGRYFCTKWKHGWCEEVGTGG-NH2 (disulfide 6-14 (inferred)) [SYN1708], for which, in experiment [3], the Kd is 570 nM.

Turning to Ac-RYFCTKWKHGWCEEVGTGGGK-NH2 (disulfide 4-12 (inferred)) [SYN1706], in experiment [3], the dissociation constant Kd stood at 900 nM. On the same count and under the same terms, the result for Ac-GRYFCTKWKHGWCEEVGTGGGK-NH2 (disulfide 5-13 (inferred)) [SYN1705] reads 840 nM. In experiment [1], Ac-TCKWDDGFSCEYV-NH2 (disulfide 2-10 (inferred)) [SYN1162] had a dissociation constant Kd of 97600 nM. In turn, Ac-AGRYFCTKWKHGWCEEVG-NH2 (disulfide 6-14 (inferred)) [SYN1711] showed an equilibrium dissociation constant (Kd) in experiment [3] of 1560 nM. Regarding Ac-VMKCWWDEEFLCRAF-NH2 (disulfide 4-12 (inferred)) [SYN1536], the Kd in experiment [4] is 1100 nM; in [7], 18 nM; in experiment [10], 31 nM. The “Kd Ratio 7.4/6.0” value in experiment [5] was 61. Turning to Ac-AGRYFCTKWKHGWCEEVGTG-NH2 (disulfide 6-14 (inferred)) [SYN1709], in experiment [3], binding was put at a Kd of 680 nM. With Ac-YMTCKWDDGFSCEY-NH2 (disulfide 4-12 (inferred)) [SYN1164], the affinity in experiment [1], expressed as Kd, was 570 nM.

A word on the Kd: it is the concentration at which binding is half-saturated. A higher Kd goes with a looser complex.
